Here are results for 9 molecules from patent publication US20200362021A1 (PHANES THERAPEUTICS, published 2020).

No end group written: not given here. *: point of attachment. Biotin = O=C1N[C@H]2[C@H](CS[C@H]2CCCCC(=O)*)N1

One may read the Kd as a measure of binding affinity in units of concentration. Read a high Kd as a looser complex. The term EC50 denotes the concentration needed to bring the measured effect to its halfway point. A high value points to weaker potency.

The target in experiment [1] is T1, biotin-apelin-13 (biotin-…) (N-terminal biotin).
T1 construct: also called Biotin-APL13
The experiment in a line: SPR (Biacore), biotin-apelin-13 on streptavidin CM5 chip, mAb at 12.5-100 nM. On the procedure:
Anti-apelin mAbs at four different concentrations (12.5 nM, 25 nM, 50 nM and 100 nM) were captured on the chip surface. The on- and off-rate for antibody-antigen binding were measured, curve fitted and calculated.

For experiment [2], the target named is T2, pyr-apelin-13-biotin (pE-RPRLSHKGPMPF-biotin) (N-terminal pyroglutamate (pE); C-terminal biotin).
T2 construct: also called pyrAPL13-Biotin
T2 peptide: ERPRLSHKGPMPF
The experiment in a line: ELISA, peptide on neutravidin plate, mAb 200 ng/ml, A405. Here is the method: (§1) FIGS. 1A-1C show binding of anti-apelin mAbs to various biotinylated apelin peptides measured by ELISA. Biotinylated apelin peptides were immobilized on ELISA plates coated with neutravidin and purified recombinant rabbit anti-apelin mAbs were added for binding to the peptides on the plates. The binding was detected by adding a goat anti-rabbit IgG Fc-conjugated to alkaline phosphatase and PNPP substrate, and measured as the absorbance at 405 nm.
(§2) For the binding assay, neutravidin in carbonate coating buffer was coated on high binding ELISA plates at 1 μg/ml overnight. Peptides were added at 4 μg/ml after the plates were blocked with 1% BSA in TBS. After incubation of the plates at room temperature for 60 minutes, the plates were washed and then purified recombinant rabbit antibodies were added at 200 ng/ml. Following rabbit antibody binding to the peptides on the plates at room temperature for 90 minutes, goat anti-rabbit IgG Fc-conjugated to alkaline phosphatase was added, and antibody-antigen binding was detected by adding PNPP substrate and reading absorbance of ELISA plates at 405 nm. Each mAb was assayed in duplicate.

In a further experiment the target is T3, Biotin-APL17.
T3 peptide: Biotin-KFRRQRPRLSHKGPMPF
The experiment is described as above. Here is the method: as §1, §2

Experiment [3] has as its target alanine scanning peptide 9A (KAPMPF). The experiment in a line: competition ELISA, captured mAb, peptide competes with biotin-apelin-13, A405. On the procedure:
(§3) Goat anti-rabbit IgG was immobilized on an ELISA plate. […] Several competition peptides were used as controls.
(§4) For the peptide competition assay, goat anti-rabbit IgG in carbonate coating buffer was coated on high binding ELISA plates at 1 μg/ml overnight. […] After incubation at room temperature for 60 minutes, the plates were washed and then streptavidin-conjugated to alkaline phosphatase was added, and the binding was detected by adding PNPP substrate and reading absorbance of ELISA plates at 405 nm. Each competition peptide or control sample was assayed in duplicate for a given mAb. […] “No comp:” no competition peptide was added; “No Ab, No Comp:” neither competition peptide nor anti-apelin mAb was added.
(In general: ELISA stands for enzyme-linked immunosorbent assay.)

The target of experiment [4] is alanine scanning peptide 8A (AGPMPF). The description is as above. Here is the method: as §3, §4
In experiment [5] the target is T4, alanine scanning peptide 10A (KGAMPF).
T4 peptide: KGAMPF
The description is as above. Here is the method: as §3, §4

Experiment [6] concerns the target T5, apelin peptide 2-13 (RPRLSHKGPMPF).
T5 peptide: RPRLSHKGPMPF
The description is as above. On the procedure: as §3, §4

In experiment [7] the target is T6, apelin peptide 8-13 (KGPMPF).
T6 peptide: KGPMPF
Described as above. Here is the method:
(§5) Goat-anti-rabbit IgG was immobilized on an ELISA plate.
(§6) The antibody binding sites for anti-apelin mAbs C8, C24, and C25 were mapped using an ELISA-based peptide competition assay. […] Each of the competition peptides (Table 7) was assessed for its ability to inhibit biotin-apelin-13 binding to the mAb. An inhibition signal reflects the ability of the competition peptide to bind to the mAb in solution.
as §4

Experiment [8] has as its target T7, apelin peptide 3-13 (PRLSHKGPMPF).
T7 peptide: PRLSHKGPMPF
The description is as above. Here is the method:
as §5, §6, §4

Experiment [9] has as its target T8, apelin peptide 5-13 (LSHKGPMPF).
T8 peptide: LSHKGPMPF
The description is as above. On the procedure: as §5, §6, §4

Experiment [10] concerns the target T9, apelin peptide 4-13 (RLSHKGPMPF).
T9 peptide: RLSHKGPMPF
Described as above. On the procedure:
as §5, §6, §4

The target in experiment [11] is T10, apelin peptide 6-13 (SHKGPMPF).
T10 peptide: SHKGPMPF
Described as above. On the procedure: as §5, §6, §4

The target of another experiment is T11, 9-13.
T11 construct: also called apelin peptide 9-13 (GPMPF)
T11 peptide: GPMPF
The description is as above. Here is the method: as §5, §6, §4

Experiment [12] addresses T12, apelin peptide 1-12 (QRPRLSHKGPMP).
T12 peptide: QRPRLSHKGPMP
The description is as above. On the procedure:
as §5, §6, §4

The target in experiment [13] is T13, apelin peptide 7-13 (HKGPMPF).
T13 peptide: HKGPMPF
The experiment is described as above. Here is the method:
as §5, §6, §4

A further experiment deals with T14, 10-13.
T14 construct: also called apelin peptide 10-13 (PMPF)
T14 peptide: PMPF
Described as above. Here is the method:
as §5, §6, §4

Experiment [14] addresses T1, biotin-apelin-13 (biotin-…). The experiment in a line: ELISA, increasing concentrations of IgG4 mAb immobilized on plate, biotin-apelin-13 added, streptavidin-AP detection. The text has this:
Two additional humanized mAbs (B24 and B25) were generated with sequence modifications on A31. […] The binding was then detected by adding PNPP substrate and reading absorbance of the ELISA plates at 405 nm.

B1: anti-apelin mAb C26 (antibody, V domains shown)
VH: QEQLEESGGGLVQPEGSLTLTCTASGFTLSNYWMSWVRQAPGKGLVWIGCIDIGSDDTYYASWAKGRFTISRTSSTTVTLQVTSLTAADTATYFCARSGGLWGPGTLVTVSS
VL: QVLTQTPSSTSAAVGGTVTINCQASQSVYNNNDLAWYQQKPGQPPKRLIYEASKLASGVPSRFSGSGSGTQFTLTISDLECDDAATYYCAGGWSGNFYVFGGGTEVVVK
notes: recombinant rabbit IgG made in HEK293 cells
For B1, the Kd in [1] was found to be 0.119 nM. The binding result in experiment [2] was “no binding (tested: 200 ng/ml)”.

B2: C13 (antibody, V domains shown)
VH: QSLEESGGRLAKPGETLTLTCTVSGIDLNSHAVDWVRQAPGKGLEWIGVIGPGGNTYYASWAKGRFTISKTSSTTVDLKMTSLTAEDTATFFCATYPIYSGDNIWGPGTLVTVSS
VL: DPVLTQTPPSVSAAVGGTVTINCQSSESVDNNNQLSWYQQKVGQPPKRLMYYASTLDSGVPSRFKGGGSGTHFTLTITDLECDDAATYYCQGGTATNIYPFGGGTEVVVK
notes: recombinant rabbit mAb; also called anti-apelin mAb C13
For B2, the binding result (with Biotin-APL17; in [2]) was “binds” throughout.

B3: anti-apelin mAb C17 (antibody, V domains shown)
VH: QSVEESGGRLVKPDETLTLTCAVSGIDLSSNAMNWVRQAPGEGLEWIGSMYTDGTTYYANWAKGRFTISRASSTTVDLKMTSLTAADTATYFCARGDIWGPGTLVTVSS
VL: QVLTQTASPVSAAVGGTVTISCQSSQSVYNNNWLAWFQQKPGQPPKRLIYGTSELASGVPSRFKGSGSGTQFTLTISGVQCDDAATYYCLGTYSSNIHVFGGGTEVVVK
notes: as for B1
Turning to B3, the Kd in experiment [1] was 1.06 nM. Also, the binding result in experiment [2] is “no binding (tested: 200 ng/ml)”.

B4: anti-apelin mAb C8 (antibody, V domains shown)
VH: QSVEESGGRLVTPGTPLTLTCTVSGIDLYSNRMSWVRQAPGKGLEWIGSIGSSPWYASWAQGRFTISKTSSTTVNLKITSPTTEDTATYFCAKGGYRPGASVWGPGTLVTVSS
VL: QVLTQTESPVSAPVGGTVTIACQSSQSVYDNNDLAWYQQKAGQTPKRLIYLASSLDSGVPSRFKGSGSGTEFTLTISDLECDDAATYYCAGGYSGDIYTFGGGTEVVVE
notes: as for B1
In [1], B4 came in with a Kd of 0.0174 nM. Also, the binding result in experiment [3], in experiment [4], in [5], in experiment [6], in [7] and in experiment [8] was “binds” throughout. The binding result in [9] is reported as “binds”; in experiment [10], “binds”; in experiment [11], “binds”; in the experiment with 9-13, “binds”; in experiment [12], “no binding (tested: peptide concentration not stated)”; in experiment [13], “binds”. The binding result in the experiment with 10-13 is “binds”.

B5: anti-apelin mAb C5 (antibody, V domains shown)
VH: QSVEESGGRLVTPGTPLTLTCTVSGFSLSGAWMNWVRQAPGKGLEWIGVVSSDDNIYYADWAKGRFTISKTSTTVDLKLTSPTTEDTATYFCARNLGTIWGPGTLVTVSS
VL: QVLTQTESPVSAAVGGTVTINCQSSQSVWSNYLSWFQQKPGQPPKVLIYGTSKLPSGVPSRFSGSGSGTEFTLTINDLECDDAATYYCAGGYSGHIYSFGGGTEVVVK
notes: as for B1
As to B5, in experiment [1], the Kd turned out to be 51.3 nM. Further, in experiment [2], the binding result is given as “no binding (tested: 200 ng/ml)”.

B6: anti-apelin mAb C27 (antibody, V domains shown)
VH: QSVEESGGRLVTPGGSLTLTCTVSGIDLINAWMNWVRQAPGKGLEWIGTTTDDDTIYYANWAKGRFTISRTSTTVDLKVTSLTSEDTATYFCSKGRIWGPGTLVTVSL
VL: QVLTQTPASVSAAVGGTVTINCQASQSVYDGNWLCWYQQKPGQPPKRLIYKASTLESGVPSRFKGSGSGTQFTLTISDLECDDAATYYCQGGFTSNIYPFAGGTEVVVK
notes: as for B1
Molecule B6 registered a Kd in experiment [1] of 0.589 nM. Further, the results for the binding result (with Biotin-APL17; in experiment [2]) were “binds” and “no binding (tested: 200 ng/ml)”, respectively.

B7: humanized anti-apelin mAb B24 (human IgG4 backbone) (antibody, V domains shown)
VH: QSLEESGGGLVQPGGSLRLSCTVSGIDLYTNRVSWVRQAPGKGLEWVGSIGSSPWYASWAQGRFTISRDNSNTVYLKMNSPTAEDTATYFCAKGGYRPGGSIWGQGTLVTVSS
VL: DIQLTQSPSSLSASVGDRVTITCQSSQSIYDNNDLGWYQQKPGKTPKRLIYLASSLDSGVPSRFSGSGSGTDFTLTISSLQPEDVATYYCAGGYSGDIYTFGGGTKVEIK
In experiment [14], B7 displayed an EC50 of 0.79 nM.

B8: humanized anti-apelin mAb A31 (human IgG4 backbone) (antibody, V domains shown)
VH: QSLEESGGGLVQPGGSLRLSCAVSGIDLYSNRMSWVRQAPGKGLEWVGSIGSSPWYASWAQGRFTISRDNSNTVYLQMNSLTAEDTATYFCAKGGYRPGASVWGQGTLVTVSS
VL: DIQLTQSPSSLSASVGDRVTITCQSSQSIYDNNDLAWYQQKPGKTPKRLIYLASSLDSGVPSRFSGSGSGTDFTLTISSLQPEDVATYYCAGGYSGDIYTFGGGTKVEIK
Consider B8, for which the EC50 in experiment [14] came out at 0.21 nM.

B9: humanized anti-apelin mAb B25 (human IgG4 backbone) (antibody, V domains shown)
VH: QSLEESGGGLVQPGGSLRLSCTVSGIDLYTNRMSWVRQAPGKGLEWVGSIGSSPWFASWALGRFTISRDNSNTVYLKMNSPTAEDTATYFCAKGGYRPGASVWGQGTLVTVSS
VL: DIQLTQSPSSLSASVGDRVTITCQSSQSIYDNNDLAWYQQKPGKTPKRLIYLASSLDSGVPSRFSGSGSGTDFTLTISSLQPEDVATYYCAGGYNGDIYTFGGGTKVEIK
With B9, the 50% effective concentration (EC50) in experiment [14] worked out at 0.47 nM.
